In the supplement of paper PMC9170038:

What was measured:
[1] = tested on: MS2 coat protein; assay: apparent KD of MS2 coat protein, switch ON state; designed switch direction (-1 OFF switch, 1 ON switch): -1; higher = weaker reporter binding; conditions: FMN input: 0 or 200 uM; Eterna round: R93 (includes R88 designs)
Method in brief: (§1)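 Titrations with SNAP-549-labelled MS2 coat protein ran in twofold steps from 0.7 or 1.5 nM to 3 µM, each step taking 0.8–1.5 h at the start and 10–20 min toward the end. The targets were designed RNA switches transcribed on-chip from Illumina sequencing clusters, held in 100 mM Tris-HCl pH 7.5, 80 mM KCl, 4 mM MgCl2, without or with constant ligand. Apparent KD was taken per design as the median of normalised cluster binding-curve fits.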

[2] = tested on: MS2 coat protein; assay: apparent KD of MS2 coat protein, switch OFF state (with FMN for OFF switches, without FMN for ON switches); designed switch direction (-1 OFF switch, 1 ON switch): -1; higher = weaker reporter binding; conditions: FMN input: 0 or 200 uM; Eterna round: R93 (includes R88 designs)
Method in brief: as §1

Sequence	apparent KD of MS2 coat protein [1] [µM]	apparent KD of MS2 coat protein [2] [µM]
GUAAACCUAGGAUAUACAUGAGGAUCACCCAUGUAAAAUUUAAUAAAAAGAAAAUCAAGUAGAAGGAGGUAGAU [JR_Exc003_Sub1224]	0.0254	0.0293
AAAAAGUGAGGAUAUGAAAAUAAAAAAAACAAACAAAUAAAUCAGAAGGCACAUGAGGAUCACCCAUGUAAAAA [JR_Exc004_Sub1202]	0.0368	0.0262
GCUGUGGUAGGAUAUACAUGAGGAUCACCCAUGUGAGAGAAAAAAGUGAGAAAGAAAAGUAGAAGGACCGUAGG [salish99-ex3-101]	0.049	0.0789
AAGGAUCGAGGAUAUACAUAGAUACAGAUACAUGUAGACGUACAUGAGGAUCACCCAUGUAGAAGGCGAUCAUA [AJ 27]	0.15	0.255
AACUCGUCAGGAUAUGCGCACAGAUAAUACGCUACACAAAUGCAGAAGGGACAUGAGGAUCACCCAUGUAAAUA [JR_Exc004_Sub504]	0.0426	0.0312
AGUCGGCGAGGAUAUACAUGAGGAUCACCCAUGUGAGAGAAAAAGGUGAGUCAGAAAAGUAGAAGGCGCUGACA [JL Lego Mod 5]	0.166	0.0474
AAAAACUGAGGAUAUACAUGAGGAUCACCCAUGUAAAAAAAAAAAAAGGGAAAAAAAAGUAGAAGGCAGAAAAA [Nebiriau II]	0.0261	0.041
AAAAAGCGAGGAUAUACAUGAGGAUCACCCAUGUAAAAGGUCGCGGGAGGGAGGGAAGGUAGAAGGCGCAAAAA [Excls3-VI]	0.0154	0.0141
AAAGGACGAGGAUAUACAUGAGGAUCACCCAUGUAAAAAGCAUAAUAAAAGAACUUAUGUAGAAGGCGUCCAAA [69%, Moding Meechl, 5]	0.041	0.189
AACAAACAUGAGGAUCACCCAUGUAAGGAUAUGCGACAAAAACAAAAAACAAAAAAAAGCAGAAGGUACAACAA [Amethyst 100]	0.0234	0.0304
AGCUAGUCAGGAUAUACGAACAGGUCAAAAGACCUGAAGGGACAUGAGGAUCACCCAUGUAGAAGGGACUAGCA [Mat - Exclusion 2 - JL mod - D28]	0.0258	0.131
UAAAGACAUGAGGAUCACCCAUGUGAGGAUAUCGGAGAUGACGGAACAUCAAGUUCGGCGAGAAGGCGCAGGAA [JR_Exc001_Sub406]	0.0309	0.0307
AAAGAUGGAGGAUAUACAUGAGGAUCACCCAUGUAGAAAAAAAAUUGGGAAAAAGAAAGUAGAAGGCCAAAAAA [Ex 3 May 43]	0.0387	0.0729
AAGAAACAUGAGGAUCACCCAUGUGAGGAUAUACAAAAGAAAAGAAAAGAAAGAAGAAGUAGAAGGCACAAAGG [Djedkare Shemai]	0.0225	0.0203
UAAAAACAUGAGGAUCACCCAUGUAAGGAUAUGCUGAAAAACACGGAAAAAACGUGCAGCAGAAGGUACAAAAU [Mat - Exclusion 1 - Eli mod - D98]	0.019	0.0476
AAAAAACAUGAGGAUCACCCAUGUGAGGAUAUGCAAAACCCAUAUAAAAAGGGAAAAAGUAGAAGGCACAAAAA [wbt round 1 mod 10]	0.0241	0.0286
AGAAACGUAGGAUAUACAUGAGGAUCACCCAUGUAAAGAAAGAAGGGAGAAAGAAGAAGUAGAAGGACGAAGAA [JR_Exc003_Sub003]	0.0192	0.0599
AAGUUGCUAGGAUAUACUUGGGCAACAAAUGAACCAAUAUAACAUGAGGAUCACCCAUGUAGAAGGAGCAGAAA [JR_Exc002_Sub301]	0.0352	0.0635
AAAAAACAUGAGGAUCACCCAUGUGAGGAUAUCGAGAAGAAGAAGAAGAAGAAGAGAACGAGAAGGCACAAAAA [Exclusion 1 - G's]	0.0258	0.0299
GAAAAGGUAGGAUAUACGAAAAAAAAGGGUAGAAAAAAAACACAUGAGGAUCACCCAUGUAGAAGGACCAAAAG [Mat - Exclusion 2 - Tesla mod - D30]	0.0266	0.602
AAGAAGGAAGGAUAUACAUGAGGAUCACCCAUGUAAAAGAAAGAGGGAAAAGAGAAAAGUAGAAGGUCCAAGAA [Ptolemy V Epiphanes]	0.0265	0.0303
GGUUGGCGAGGAUAUACAUGAGGAUCACCCAUGUGAGAAAAAAAAGUGAGAAAGAAAAGUAGAAGGCGCUGACG [salish99-ex3-49]	0.0401	0.157
AAAGAUGCAGGAUAUACAUGAGGAUCACCCAUGUUAGACCUGAAAAGGGAAAAAGAAAGUAGAAGGGCAUAAAA [Ex 3 May 32]	0.0134	0.017

Sequence	apparent KD of MS2 coat protein [1] [µM]	apparent KD of MS2 coat protein [2] [µM]
AGUCAGAGAGGAUAUACAUGGAAAAAAAAAGUAAGAUCCCUACAUGAGGAUCACCCAUGUAGAAGGCUCUGACA [Ex2 Design 138: Sub-opt 2]	0.0275	0.0132
CACGGGUUAGGAUAUGCAUGGUGAAAAGACGCGAUCCUUAGACAUGAGGAUCACCCAUGUAGAAGGAACGCGAU [Reonisar]	0.0172	0.015
AACAGUACAGGAUAUACAUGAGGAUCACCCAUGUGACAGAAAUAAAACAAAAAUAAAAGUAGAAGGGUACUGGA [Ruby 42]	0.031	0.0612
AGGAAACAUGAGGAUCACCCAUGUGAGGAUAUGAGAAAGAAAAGAAAAGAAAGAAGAAUCAGAAGGCACAAGAA [Raneb]	0.0428	0.0466
AAAUGCUGAGGAUAUACAUGAGGAUCACCCAUGUAAAAUAAAUAAUGGAUGUAAACGUGUAGAAGGCAGCAUAA [Exclusion 3.14b (FMN+ favored )]	0.0796	0.023
AACAAACAUGAGGAUCACCCAUGUAAGGAUAUACGAAACAAACAAACAAACAAACAAAGUAGAAGGUACAGGAA [Exclusive 1]	0.0173	0.0163
AAGAAGGGAGGAUAUACAAAAUAAAAGAAAAGAAAGAAAGAACAUGAGGAUCACCCAUGUAGAAGGUCCAAGAA [Imyremeshaw]	0.0481	0.071
AAGGGACAUGAGGAUCACCCAUGUGAGGAUAUGCUAUGGAAAUAAAAAAUAAAACAUAGCAGAAGGCAUAAAAA [Mat - Exclusion 1 - Eli mod - D38]	0.0693	0.0605
AACCGACAUGAGGAUCACCCAUGUAAGGAUAUGCAUCCUUCGGCCCGGACCAGAGGAAGCAGAAGGUGCAGGGA [Iscegebia]	0.0431	0.0412
AAAAAACAUGAGGAUCACCCAUGUGAGGAUAUGCGAAAAAAAAAAUAAAAAAAAAAAAGCAGAAGGCACAAAAA [LROPPY Exclusion 1 - v05_deltaG=1.64]	0.0376	0.0585
AAAUUGUCAGGAUAUCGUAUAACUGGGAAAACCAGGAGAUACGAGAAGGGACAUGAGGAUCACCCAUGUAAAAC [May 94]	0.0516	0.0658
GGCUAGUCAGGAUAUACGAACAUGUCAAAAGACGUGAAGGGACAUGAGGAUCACCCAUGUAGAAGGGACUAGCA [salish99-ex2-12]	0.0315	0.183
AGUCUGAGAGGAUAUACAUGGAAAAAAAAAGUUAGAUCCCUACAUGAGGAUCACCCAUGUAGAAGGCUCUGACA [Ex2 Design 149: Sub-opt 13]	0.0458	0.0152
AAGAACUGAGGAUAUACAUGAGGAUCACCCAUGUAAAAGAAAGAAAGGGAAAAGAAAAGUAGAAGGCAGAAGAA [Menmaatre-setpenptah Ramesses XI]	0.0511	0.0594
AAGAUCAGAGGAUAUACAGAAGGUGAUGAAAACAUCGCCAAACAUGAGGAUCACCCAUGUAGAAGGCUGAUCAA [JL EX2 2]	0.119	0.204
UUGGGACAUGAGGAUCACCCAUGUAAGGAUAUUGGCGCGCCGGCUCUGUCUGUUCCGCCGAGAAGGUACACGUU [Exclusion I]	0.0455	0.102
AGCAAGUCAGGAUAUACGAACAAGACAAAAGACGUGAAGGGACAUGAGGAUCACCCAUGUAGAAGGGACAAGCA [74%, Web mod - With 4 less U's]	0.0791	0.0558
AACUGACAUGAGGAUCACCCAUGUCAGGAUAUGACUUGACGAAAAAAAACACGUCAUGUCAGAAGGGACAUGAA [Design 88: Sub-opt YB]	0.015	0.0169
AAAAUGUCAGGAUAUGUAGCAAAAGGUGAUCAAAAAAAGCUACAGAAGGGACAUGAGGAUCACCCAUGUAAAAA [Ex4: 935]	1.02	2.87
AAAAAGUGAGGAUAUGGUAAAAAAAAAAAAAAAAAAAACCUCCAGAAGGCACAUGAGGAUCACCCAUGUCAAAA [Jolly's Folly 3 - Jieux - Exclusion 4]	0.0447	0.019
AGCUAGUGAGGAUAUGCGAACAUGUCAAAAGACGUGAAGGGACAUGAGGAUCACCCAUGUAGAAGGCACUAGCA [JL 74% mod 3]	0.0264	0.0363
AAAACUGGAGGAUAUACAUGAGGAUCACCCAUGUGUGGGUGGGCUGUGUCGGCGUCAGGUAGAAGGCCACAAAA [Gilly Gone Silly 33 - Jieux - Exclusion 3]	0.201	0.108
